Reference: the nanobody polyreactivity screen of Harvey et al. (2022)

Assay: yeast display, Sf9 membrane polyspecificity reagent, FACS + sequencing; frameworks hold sequencing errors
Summary of the method: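 Galactose induction of a Saccharomyces cerevisiae BJ5465 synthetic nanobody display library ran 36–48 hours. The cells were then stained for 1 hour at 4 °C with 10% biotinylated, detergent-solubilized Sf9 membrane reagent, pulled down on streptavidin microbeads and FACS-sorted into low and high (top ~1%) gates on expression and reagent-binding fluorescence. Labels for polyreactivity follow the gate of origin.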

Row | Sequence | polyreactivity (PSR sort gate)
1 | QVQLVESGGGLVQAGGSLRLSCAASGITFRQNTMGSYRQAPGKEGELVAAITSSGRTYYADSVKGRFTISRDNAKNTVYLQMNSLKPEDSAVYYCAADTYYFGYGYWGQGTQVTVSS | high polyreactivity
2 | QVQLVESGGGLVQAGGSLRLSCAASGITFRQYAMGWYRQAPGKEREFVAAISWIGGSTYYADSVKGRFTISRDTAKNTVYLQMNSLKPEDTAVYYCAAETFTDYDYWGQGTQVTVSS | high polyreactivity
3 | QVQLVESGGGLVQAGGSLRLSCAASGITFRRNAMGWYRQAQGKESQLVAAITSRGGSTYYADSVKWRFTISRDNAKNTVYLQMISMKPEDTAVYYCNAGGVDRVDRDYWGQGTQVTVSS | high polyreactivity
4 | QVQLVESGGGLVQAGGSLRLSCAASGITFRRYTMGWYRQAPGKEMELVAAISRIGGSTYYADSVKGRFTISRDNAKNTVYLQMNSLKPEDTAVYYCARAGRVQPGSEDDYWGQGTQVTVSS | high polyreactivity
5 | QVQLVESGGGLVQAGGSLRLSCAASGITFRSYAMGWYRQAPGKERELVAAISQSGTSTYYADSVKGRFTISRDNAKNTVYLQMNSLKPEDTAVYYCAASYYLKLRRRRYDYWGQGTQVTVSS | high polyreactivity
6 | QVQLVESGGGLVQAGGSLRLSCAASGITFRWYAMGWYRQAPGKERELVASISSGGITTYADSVKGRFTISRDNAKNTVYLQMNSLKPEDTAVDYCNAVGHTSIRRALDILDYWGQGTQVTVSS | high polyreactivity
7 | QVQLVESGGGLVQAGGSLRLSCAASGITFRYSAMGWYRQAPGKERELVAVISTSGGSTYYADSVKGRFTISRDNAKNTVYLQMNSLKPEDTAVYYCAARYTYWGLLRYDYWGQGTQVTVSS | high polyreactivity
8 | QVQLVESGGGLVQAGGSLRLSCAASGITFRYYAMGLYRQAPGKERELVAAITRSASSTFYADSVKGRFTISRDNAKNTVYLQMNSLKPEVTAVYYCAAESVRAVFPDRYKYWGQGTQVTVSS | high polyreactivity
9 | QVQLVESGGGLVQAGGSLRLSCAASGITFRYYAMGWYRQAPGKERELVAAISRSGGRTYYADSVKGRFTISRDNAKNTVYLQMNSLKPEDTAVYYCAVAVRRGRAYDYWGQGTQVTVSS | high polyreactivity
10 | QVQLVESGGGLVQAGGSLRLSCAASGITFRYYAMGWYRQAPGKERELVAAITRSGSTTYADSVKGRFTISRDNAKNTVYLQMNSLKPEDTAVYYCAVDYYYLTGGVDYWGQGTQVTVSS | low polyreactivity
11 | QVQLVESGGGLVQAGGSLRLSCAASGITFRYYAMGWYRQAPGKERELVAVISTSGGSTYYADSVKGRFTISRDNAKNTVYLQMNSLKPEDTAVYYCAARYTYWGLLRYDYWGQGTQVTVSS | high polyreactivity
12 | QVQLVESGGGLVQAGGSLRLSCAASGITFRYYAMGWYRQAPGKERELVAVISTSGGSTYYADSVKGRFTISRDNAKNTVYLQMNSLKPEDTAVYYCAVVWPYSERYYYWGQGTQVTVSS | high polyreactivity
13 | QVQLVESGGGLVQAGGSLRLSCAASGITFRYYAMGWYRQAPGKERELVAVITYSGSRTYYADSVKGRFTISRDNAKNTVYLQMNSLKPEDTAVYYGATKGAKRVIGETAYDYWGQGTQVTVSS | high polyreactivity
14 | QVQLVESGGGLVQAGGSLRLSCAASGITFRYYTMGWYRQAPGKERELVAAITWSGSSTYYADSVKGRFTISRDNAKNTVYLQMNSLKPEDTAVYYCNAVPYDYLADYWGQGTQVTVST | low polyreactivity
15 | QVQLVESGGGLVQAGGSLRLSCAASGITFSFYAMGWYRPAPGKERELVAAINGRGGRTYYADSVKGRFTISRDNAKNTVYLQMNSLKPEDTAVYYCAAVVWRTDYDYWGQGTQVTVSS | low polyreactivity
16 | QVQLVESGGGLVQAGGSLRLSCAASGITFSFYAMGWYRQAPGKERELVAGLTRSGGDTYYADSVKGRFTISRDNAKNTVYLQMNSLKPEDTAVYYCAAAWFFYRRQYTFFAGRMDYWGQGTQVTVSS | high polyreactivity

Row | Sequence | polyreactivity (PSR sort gate)
17 | QVQLVESGGGLVQAGGSLRLSCAASGITFSGNAMGWYRQAPGKERELVAAISGGGSTNYADSVKGRFTISRDNAKNTVYLQMNSLKPEDTAVYYCAAEIIFWYLYRDYYYWGQGTQVTVSS | low polyreactivity
18 | QVQLVESGGGLVQAGGSLRLSCAASGITFSNYAIGWYRQAPGKERELVAAISKRGGSTYYADSVKGRFTISRDNAKNTVYLQMNSLKPEDTAVYYCAAAGVRVYVRSGLDYWGQGTQVTVSS | high polyreactivity
19 | QVQLVESGGGLVQAGGSLRLSCAASGITFSPSAMGWCRQAPGKERELVAAITSGGSTNYADSVKGRFTISRDNAKNTVYLQMNSLKPEDTAVYYCAAGRWPAPWYTRNYWGQGTQVTVSS | low polyreactivity
20 | QVQLVESGGGLVQAGGSLRLSCAASGITFSPYAMGWYRQAPGKERELVAAISSRGGSTYYADSVKGRFTISRDNAKNTVYLQMNSLKPEDTAVYYCNALTFVRYLFHYTYWGQGTQVTVSS | high polyreactivity
21 | QVQLVESGGGLVQAGGSLRLSCAASGITFSSYAMGWYRQAPGKERELVAGITRRGGITYYADSVKGRFTISRDNAKNTVYLQMNSLKPEDTAVYYCAATHRFRTGSPDGGYGYWGQGTQVTVSS | high polyreactivity
22 | QVQLVESGGGLVQAGGSLRLSCAASGITFSSYTMGGYRQAPGKERELVARINSGGTTNYADSVKGRFTISRDNAKNTVYLQMNSLKPEDTAVFYCAAEWVSWRWAHKFDYWGQGTQVTVSS | high polyreactivity
23 | QVQLVESGGGLVQAGGSLRLSCAASGITFSVYAMGWYRQAPGKEWELVASISSGGTSTYYADSVKGRFTISRDNAKNTVYLQMNSLKPEDTAVYYCAAYSYYTGDQYSYDYWGQGTQVTVSS | low polyreactivity
24 | QVQLVESGGGLVQAGGSLRLSCAASGITFSYNDMGWYRPAPGKEREFVATIRGSTARTYNADSVKGRFTISRDNAKNTVYLQMNSLKPEDTAVYYGAAGKYWYGYDYWGQGTQVTVSS | high polyreactivity
25 | QVQLVESGGGLVQAGGSLRLSCAASGITFSYYAMGWYRQAPGKERELVAAINSGGGSTYYADSVKGRFTISRDNAKNTVYLQMNSLKPEDTAVYYCAARYRSRYDYYYDRDYWGQGTQVTVSS | low polyreactivity
26 | QVQLVESGGGLVQAGGSLRLSCAASGITFSYYAMGWYRQAPGKERELVAVISRRGGTTYYADSVKGRFTISRDNAKNTVYLQMNSLKPEDTAVYYCAATYISVLGYEYWGQGTQVTVSS | high polyreactivity
27 | QVQLVESGGGLVQAGGSLRLSCAASGITFTFNAKGWYRQAPGKERELVAAISSTTSTIYADSVKRRFTISRDNAKNTVYLQMNRLKPEDTAVYYCAAVEFELLGDYWRQGTQVTVSS | low polyreactivity
28 | QVQLVESGGGLVQAGGSLRLSCAASGITFTFNAMGWYRQAPGKDRELVAAMTWSGGSTFYADSVKGRFTISRDNAKNTVYLQMNSLKPEDSAVYYCARDTELYVRWLDYWGQGTQVTVSS | low polyreactivity
29 | QVQLVESGGGLVQAGGSLRLSCAASGITFTGYAMVWYRQAPGKERELVAAIRGGGNTYYADSVKGRFTISRDNAKNTVYLQMNSLKPEDTAVYYCAADDIAHQYFVSTVDVGMDYWGQGTQVTVSS | low polyreactivity
30 | QVQLVESGGGLVQAGGSLRLSCAASGITFTQYTMGWYRQARGKQRELVAAISSSGGRTYYADSVKGRYTISRDNAKKTVYLQMNSLKPEDTAVYYCAAAWRRTFDYCGQGTQVTVSS | high polyreactivity
31 | QVQLVESGGGLVQAGGSLRLSCAASGITFTRNAMGWYRQAPGKERELVATISGSGGGTYYADSVKGRFTISRDNAKNTVYLQMNSLKPEDTAVYYCNARRWYYWQGTARYDYWGQGTQVTVSS | low polyreactivity
32 | QVQLVESGGGLVQAGGSLRLSCAASGITFTSYAMGWYRQAPGKERELVAAISSSGGSTYYADSVKGRFTISRDNAKNTVYLQMNSLKPEDPAVYYCNARPRSRSPRVEYDYWGQGTQVTVSS | high polyreactivity
